Results reported in the supplement of paper PMC10567573.

B1: ZNF193 (parent)
chain: QCIECGKSFNRHCNLIRHQKIHTV
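Note: lentivirally expressed fusions sorted by FACS into six bins by GFP to DsRed ratio, PSI derived from sequencing read proportions per bin multiplied by bin number.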

Variants of: B1
Assay: protein stability index of a GFP-peptide fusion (GPS, HEK-293T) (PSI 1-6); higher = more stable
Conditions: c terminus: a fixed tail appended
QCIECGKSFNRHCNLIRHQQIHTV gave a protein stability index of 3.5. For QCIECGKSFNRHCNLIRHQLIHTV, the protein stability index was 2.93. Work on QCIECGKSFNRHCNLIRHQYIHTV yielded a protein stability index of 2.2. In the case of QCIECGKSFNRHCNLIRHQMIHTV, the protein stability index is reported as 3.13. QCIECGKSFNRHCNLIRHQDIHTV showed a protein stability index of 2.83. Work on QCIECGKSFNRHCNLIRHQFIHTV yielded a protein stability index of 2.95. In the case of QCIECGKSFNRHCNLIRHQPIHTV, the protein stability index is reported as 2.7. In the case of QCIECGKSFNRHCNLIRHQAIHTV, the protein stability index is reported as 3.85. QCIECGKSFNRHCNLIRHQIIHTV gave a protein stability index of 2.2. In the case of QCIECGKSFNRHCNLIRHQCIHTV, the protein stability index is reported as 3.47. With QCIECGKSFNRHCNLIRHQEIHTV the protein stability index was 3.29. Variant QCIECGKSFNRHCNLIRHQWIHTV has a protein stability index of 2.22. With QCIECGKSFNRHCNLIRHQRIHTV the protein stability index was 3.4. QCIECGKSFNRHCNLIRHQTIHTV gave a protein stability index of 2.63. Work on QCIECGKSFNRHCNWIRHQKIHTV yielded a protein stability index of 4.43. QCIECGKSFNRHCNTIRHQKIHTV gave a protein stability index of 2.29. For QCIECGKSFNRHCNVIRHQKIHTV, the protein stability index was 2.34. With QCIECGKSFNRHCNYIRHQKIHTV the protein stability index was 3.35. With QCIECGKSFNRHCNLIRHGKIHTV the protein stability index was 2.5. Work on QCIECGKSFNRHCNLIRHVKIHTV yielded a protein stability index of 2.5. In the case of QCIECGKSFNRHCNLIRHKKIHTV, the protein stability index is reported as 3.27. With QCIECGKSFNRHCNLIRHFKIHTV the protein stability index was 2.73. QCIECGKSFNRHCNLIRHMKIHTV gave a protein stability index of 3.48. QCIECGKSFNRHCNLIRHDKIHTV gave a protein stability index of 2.03. QCIECGKSFNRHCNLIRHHKIHTV gave a protein stability index of 2.72. Work on QCIECGKSFNRHCNLIRHTKIHTV yielded a protein stability index of 2.79. QCIECGKSFNRHCNLIRHWKIHTV gave a protein stability index of 2.25. With QCIECGKSFNRHCNLIRHPKIHTV the protein stability index was 1.99. QCIECGKSFNRHCNLIRHSKIHTV gave a protein stability index of 3.46. Work on QCIECGKSFNRHCNLIRHNKIHTV yielded a protein stability index of 2.81. In the case of QCIECGKSFNRHCNLIRHIKIHTV, the protein stability index is reported as 2.8. Work on QCIECGKSFNRHCNLIRHCKIHTV yielded a protein stability index of 3.78. QCIECGKSFNRHCNLIRHEKIHTV gave a protein stability index of 3.73. In the case of QCIECGKSFNRHCNLIRHAKIHTV, the protein stability index is reported as 2.84. Work on QCIECGKSFNRHCNLIRHYKIHTV yielded a protein stability index of 2.59. QCIECGKSFNRHCNLIRHLKIHTV showed a protein stability index of 2.75. For QCIECGKSFNRHCNLIRHRKIHTV, the protein stability index was 2.98. With QCIECGKSFNRHCNLGRHQKIHTV the protein stability index was 3.02. For QCIECGKSFNRHCNLTRHQKIHTV, the protein stability index was 3.3. With QCIECGKSFNRHCNLVRHQKIHTV the protein stability index was 3.69. Variant QCIECGKSFNRHCNLFRHQKIHTV has a protein stability index of 2.43. QCIECGKSFNRHCNLDRHQKIHTV showed a protein stability index of 2.96. With QCIECGKSFNRHCNLHRHQKIHTV the protein stability index was 3.18. In the case of QCIECGKSFNRHCNLERHQKIHTV, the protein stability index is reported as 3.44. With QCIECGKSFNRHCNLQRHQKIHTV the protein stability index was 3.64. QCIECGKSFNRHCNLCRHQKIHTV showed a protein stability index of 3.9. Variant QCIECGKSFNRHCNLWRHQKIHTV has a protein stability index of 2.46. Work on QCIECGKSFNRHCNLARHQKIHTV yielded a protein stability index of 2.74. For QCIECGKSFNRHCNLLRHQKIHTV, the protein stability index was 3.29. QCIECGKSFNRHCNLYRHQKIHTV showed a protein stability index of 2.94. QCIECGKSFNRHCNLMRHQKIHTV gave a protein stability index of 3.1. QCIECGKSFNRHCNLSRHQKIHTV showed a protein stability index of 3.41. Variant QCIECGKSFNRHCNLRRHQKIHTV has a protein stability index of 3.51. Variant QCIECGKSFNRHCNLPRHQKIHTV has a protein stability index of 2.56. For QCIECGKSFNRHCNLNRHQKIHTV, the protein stability index was 2.89. In the case of QCIECGKSFNRHCNLKRHQKIHTV, the protein stability index is reported as 4. In the case of QCIECGKSFNRHCNLINHQKIHTV, the protein stability index is reported as 3.24. QCIECGKSFNRHCNLIVHQKIHTV showed a protein stability index of 2.99. In the case of QCIECGKSFNRHCNLIWHQKIHTV, the protein stability index is reported as 2.66. Work on QCIECGKSFNRHCNLICHQKIHTV yielded a protein stability index of 3.57. Variant QCIECGKSFNRHCNLIGHQKIHTV has a protein stability index of 3.07. In the case of QCIECGKSFNRHCNLIMHQKIHTV, the protein stability index is reported as 2.95. QCIECGKSFNRHCNLIDHQKIHTV gave a protein stability index of 3.78. QCIECGKSFNRHCNLIKHQKIHTV gave a protein stability index of 3.74. With QCIECGKSFNRHCNLIPHQKIHTV the protein stability index was 2.15. QCIECGKSFNRHCNLIEHQKIHTV showed a protein stability index of 4.18. Variant QCIECGKSFNRHCNLISHQKIHTV has a protein stability index of 3.4. QCIECGKSFNRHCNLIFHQKIHTV gave a protein stability index of 2.22. In the case of QCIECGKSFNRHCNLIAHQKIHTV, the protein stability index is reported as 3.31. In the case of QCIECGKSFNRHCNLIIHQKIHTV, the protein stability index is reported as 2.31. QCIECGKSFNRHCNLIHHQKIHTV showed a protein stability index of 3.13. For QCIECGKSFNRHCNLIQHQKIHTV, the protein stability index was 3.91. In the case of QCIECGKSFNRHCNLILHQKIHTV, the protein stability index is reported as 2.9. QCIECGKSFNRHCNLIYHQKIHTV gave a protein stability index of 2.52. With QCIECGKSFNRHCNLITHQKIHTV the protein stability index was 3.75. For QCIECGKSFNRHCNLIRHQKIGTV, the protein stability index was 2.94. QCIECGKSFNRHCNLIRHQKIATV showed a protein stability index of 2.76. With QCIECGKSFNRHCNLIRHQKIQTV the protein stability index was 2.7. Work on QCIECGKSFNRHCNLIRHQKIKTV yielded a protein stability index of 2.41. Work on QCIECGKSFNRHCNLIRHQKIMTV yielded a protein stability index of 2.34. QCIECGKSFNRHCNLIRHQKISTV showed a protein stability index of 2.45. In the case of QCIECGKSFNRHCNLIRHQKILTV, the protein stability index is reported as 2.88. In the case of QCIECGKSFNRHCNLIRHQKIPTV, the protein stability index is reported as 2.62. Work on QCIECGKSFNRHCNLIRHQKIVTV yielded a protein stability index of 2.32. In the case of QCIECGKSFNRHCNLIRHQKIDTV, the protein stability index is reported as 2.08. With QCIECGKSFNRHCNLIRHQKIFTV the protein stability index was 1.63. Variant QCIECGKSFNRHCNLIRHQKIWTV has a protein stability index of 1.74. Work on QCIECGKSFNRHCNLIRHQKIITV yielded a protein stability index of 2.25. Variant QCIECGKSFNRHCNLIRHQKIRTV has a protein stability index of 2.89. In the case of QCIECGKSFNRHCNLIRHQKIETV, the protein stability index is reported as 2.63. Work on QCIECGKSFNRHCNLIRHQKICTV yielded a protein stability index of 4.83. QCIECGKSFNRHCNLIRHQKITTV gave a protein stability index of 2.11. Work on QCIECGKSFNRHCNLIRHQKIYTV yielded a protein stability index of 1.56. With QCIECGKSFNRHCNLIRHQKINTV the protein stability index was 2.78.
